From US6555347 (University of California, dated 2003)

Target: T1, lexA-bicoid (UniProt P09081 2-160)
T1 construct: also called nonspecific bait; not shown: LexA part of the two-hybrid bait
T1 sequence (looked up): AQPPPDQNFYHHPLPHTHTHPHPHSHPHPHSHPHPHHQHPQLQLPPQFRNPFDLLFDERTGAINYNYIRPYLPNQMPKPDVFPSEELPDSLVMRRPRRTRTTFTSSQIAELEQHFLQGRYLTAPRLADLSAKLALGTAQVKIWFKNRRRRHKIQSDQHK
Assay: yeast two-hybrid (interaction trap), retransformation with control bait
Text: The human minor vault protein p193 amino acid sequence and the nucleotide sequence encoding human minor vault protein p193 were elucidated as follows. First, human vault protein p193 was cloned using an interaction trap, two-hybrid system according to techniques known to those with skill in the art. See, for example, Golemis, et al., *Current Protocols in Mol. Biol.* 20.1.1–20.35 John Willey & Sons, 1997, incorporated by reference in its entirety. In summary, rat major vault protein, GenBank accession number U09870, having the 67 amino acids at the amino-terminal truncated was used as bait against a HeLa acid fusion cDNA library obtained from Roger Brent, Boston, Mass., USA to search for proteins that interacted with rat major vault protein. The interacting proteins were identified by their ability to give rise to blue colonies on media containing galactose and X-gal, a color indicator substrate. The specificity of the interaction between the identified proteins and the rat major vault protein was verified by retransformation of the identified proteins with specific, rat major vault protein and nonspecific (lexA-bicoid) bait cDNAs. This technique identified the cDNA encoding the 193 kDa minor vault protein, SEQ ID NO: 1, by its interaction with the rat major vault protein.

binding result: no binding
B1: human minor vault protein p193 (other)
chain: VCTQHWQDAVPWTELLSLQTEDGFWKLTPELGLILNLNTNGLHSFLKQKGIQSLGVKGRECLLDLIATMLVLQFIRTRLEKEGIVFKSLMKMDDPSISRNIPWAFEAIKQASEWVRRTEGQYPSICPRLELGNDWDSATKQLLGLQPISTVSPLHRVLHYSQG
notes: In the two-hybrid screen, p193 was a clone from a HeLa acid fusion cDNA library; In the western blots, immunofluorescence and immunoprecipitation, the form of p193 is not described; also called 193 kDa minor vault protein; human vault protein p193
